This note sets out measurements from patent US12679878B2, “CRF2 receptor agonists and their use in therapy” (SANOFI, priority 2020, dated 2026).

Starred links: 1 amine or outer side, 2 acyl side, 3 side chain; linkers in the order of their positions; H or OH if unused. Non-standard residues stand in square brackets, D forms with d. Groups on a side chain read outwards from the residue. No end group written: not given here. *: point of attachment. C18 diacid = O=C(O)CCCCCCCCCCCCCCCCC(=O)*; γGlu = O=C(O)[C@H](CCC(=O)[*:2])N[*:1]; Palmitoyl = CCCCCCCCCCCCCCCC(=O)*; AEEA = NCCOCCOCC(=O)O; Aib = CC(C)(N)C(=O)O A value given as a limit tells only on which side of the number the result lay.

In one experiment the target is rat CRF2R α receptor (rat, UniProt P47866 20-411). As to the kind of experiment: cell-based or functional assay.
Experiment [1] deals with T1, anti-target CRF1R receptor (UniProt P34998 24-415, limits assumed).
T1 sequence (looked up): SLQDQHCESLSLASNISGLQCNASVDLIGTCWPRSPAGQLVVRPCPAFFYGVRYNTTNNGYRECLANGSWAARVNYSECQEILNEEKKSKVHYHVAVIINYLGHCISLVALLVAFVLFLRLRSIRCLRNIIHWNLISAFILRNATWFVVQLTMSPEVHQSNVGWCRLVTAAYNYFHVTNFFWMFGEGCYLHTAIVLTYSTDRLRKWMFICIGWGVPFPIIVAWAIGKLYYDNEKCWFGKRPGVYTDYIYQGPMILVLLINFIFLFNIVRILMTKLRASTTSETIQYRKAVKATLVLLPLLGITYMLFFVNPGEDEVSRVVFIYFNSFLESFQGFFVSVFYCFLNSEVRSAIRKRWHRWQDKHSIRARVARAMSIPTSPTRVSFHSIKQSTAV
The experiment can be described thus: cell-based or functional assay.

rat CRF2R α receptor, sequence (P47866 20-411): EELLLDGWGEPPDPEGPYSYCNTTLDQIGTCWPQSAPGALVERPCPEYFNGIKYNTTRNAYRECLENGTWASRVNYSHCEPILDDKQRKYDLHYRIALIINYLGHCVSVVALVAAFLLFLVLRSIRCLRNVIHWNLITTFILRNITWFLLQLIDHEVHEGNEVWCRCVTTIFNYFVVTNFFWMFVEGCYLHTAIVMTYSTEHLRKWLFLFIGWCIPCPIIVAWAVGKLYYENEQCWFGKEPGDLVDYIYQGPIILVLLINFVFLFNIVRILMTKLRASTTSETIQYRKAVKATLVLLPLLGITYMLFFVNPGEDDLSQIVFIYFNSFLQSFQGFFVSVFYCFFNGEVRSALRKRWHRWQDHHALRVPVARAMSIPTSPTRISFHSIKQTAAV

B1: peptide of SEQ ID NO: 11 (peptide)
peptide: FTLSLDVPTKIK([γGlu-Palmitoyl])QKLLKQEKQKKQRQKAKTNAQILAQV-NH2
modifications: N-terminus assumed
SMILES: CCCCCCCCCCCCCCCC(=O)N[C@@H](CCC(=O)NCCCC[C@H](NC(=O)[C@@H](NC(=O)[C@H](CCCCN)NC(=O)[C@@H](NC(=O)[C@@H]1CCCN1C(=O)[C@@H](NC(=O)[C@H](CC(=O)O)NC(=O)[C@H](CC(C)C)NC(=O)[C@H](CO)NC(=O)[C@H](CC(C)C)NC(=O)[C@@H](NC(=O)[C@@H](N)Cc1ccccc1)[C@@H](C)O)C(C)C)[C@@H](C)O)[C@@H](C)CC)C(=O)N[C@@H](CCC(N)=O)C(=O)N[C@@H](CCCCN)C(=O)N[C@@H](CC(C)C)C(=O)N[C@@H](CC(C)C)C(=O)N[C@@H](CCCCN)C(=O)N[C@@H](CCC(N)=O)C(=O)N[C@@H](CCC(=O)O)C(=O)N[C@@H](CCCCN)C(=O)N[C@@H](CCC(N)=O)C(=O)N[C@@H](CCCCN)C(=O)N[C@@H](CCCCN)C(=O)N[C@@H](CCC(N)=O)C(=O)N[C@@H](CCCNC(=N)N)C(=O)N[C@@H](CCC(N)=O)C(=O)N[C@@H](CCCCN)C(=O)N[C@@H](C)C(=O)N[C@@H](CCCCN)C(=O)N[C@H](C(=O)N[C@@H](CC(N)=O)C(=O)N[C@@H](C)C(=O)N[C@@H](CCC(N)=O)C(=O)N[C@H](C(=O)N[C@@H](CC(C)C)C(=O)N[C@@H](C)C(=O)N[C@@H](CCC(N)=O)C(=O)N[C@H](C(N)=O)C(C)C)[C@@H](C)CC)[C@@H](C)O)C(=O)O
Regarding B1, the “EC50 [nM], 0% HSA (cAMP, A7R5 cells)” value with rat CRF2R α receptor is 0.01 nM. In experiment [1], the “EC50[nM] 0% HSA (cAMP, CRF1R-overexpression CHO cells)” value (“EC50[nM] 0% HSA” below) is greater than 1000 nM and the “Emax (%) (cAMP, CRF1R-overexpression CHO cells)” value (“Emax (%)” for short) was found to be 12.7%.

B2: peptide of SEQ ID NO: 227 (peptide)
peptide: IVLSLD[dV]PIKLK([γGlu-Palmitoyl])QKLLKQQRQRKERQQAEKNKRILERV-NH2
modifications: N-terminus assumed
SMILES: CCCCCCCCCCCCCCCC(=O)N[C@@H](CCC(=O)NCCCC[C@H](NC(=O)[C@H](CC(C)C)NC(=O)[C@H](CCCCN)NC(=O)[C@@H](NC(=O)[C@@H]1CCCN1C(=O)[C@H](NC(=O)[C@H](CC(=O)O)NC(=O)[C@H](CC(C)C)NC(=O)[C@H](CO)NC(=O)[C@H](CC(C)C)NC(=O)[C@@H](NC(=O)[C@@H](N)[C@@H](C)CC)C(C)C)C(C)C)[C@@H](C)CC)C(=O)N[C@@H](CCC(N)=O)C(=O)N[C@@H](CCCCN)C(=O)N[C@@H](CC(C)C)C(=O)N[C@@H](CC(C)C)C(=O)N[C@@H](CCCCN)C(=O)N[C@@H](CCC(N)=O)C(=O)N[C@@H](CCC(N)=O)C(=O)N[C@@H](CCCNC(=N)N)C(=O)N[C@@H](CCC(N)=O)C(=O)N[C@@H](CCCNC(=N)N)C(=O)N[C@@H](CCCCN)C(=O)N[C@@H](CCC(=O)O)C(=O)N[C@@H](CCCNC(=N)N)C(=O)N[C@@H](CCC(N)=O)C(=O)N[C@@H](CCC(N)=O)C(=O)N[C@@H](C)C(=O)N[C@@H](CCC(=O)O)C(=O)N[C@@H](CCCCN)C(=O)N[C@@H](CC(N)=O)C(=O)N[C@@H](CCCCN)C(=O)N[C@@H](CCCNC(=N)N)C(=O)N[C@H](C(=O)N[C@@H](CC(C)C)C(=O)N[C@@H](CCC(=O)O)C(=O)N[C@@H](CCCNC(=N)N)C(=O)N[C@H](C(N)=O)C(C)C)[C@@H](C)CC)C(=O)O
As for B2, the “EC50 [nM], 0% HSA (cAMP, A7R5 cells)” value with rat CRF2R α receptor stood at 0.61 nM.

B3: peptide of SEQ ID NO: 184 (peptide)
peptide: IVLSLD[dV]PIKLK(C18 diacid)QILLKQERQKKQRQQAEKNKQILAQV-NH2
modifications: N-terminus assumed
SMILES: CC[C@H](C)[C@H](N)C(=O)N[C@H](C(=O)N[C@@H](CC(C)C)C(=O)N[C@@H](CO)C(=O)N[C@@H](CC(C)C)C(=O)N[C@@H](CC(=O)O)C(=O)N[C@@H](C(=O)N1CCC[C@H]1C(=O)N[C@H](C(=O)N[C@@H](CCCCN)C(=O)N[C@@H](CC(C)C)C(=O)N[C@@H](CCCCNC(=O)CCCCCCCCCCCCCCCCC(=O)O)C(=O)N[C@@H](CCC(N)=O)C(=O)N[C@H](C(=O)N[C@@H](CC(C)C)C(=O)N[C@@H](CC(C)C)C(=O)N[C@@H](CCCCN)C(=O)N[C@@H](CCC(N)=O)C(=O)N[C@@H](CCC(=O)O)C(=O)N[C@@H](CCCNC(=N)N)C(=O)N[C@@H](CCC(N)=O)C(=O)N[C@@H](CCCCN)C(=O)N[C@@H](CCCCN)C(=O)N[C@@H](CCC(N)=O)C(=O)N[C@@H](CCCNC(=N)N)C(=O)N[C@@H](CCC(N)=O)C(=O)N[C@@H](CCC(N)=O)C(=O)N[C@@H](C)C(=O)N[C@@H](CCC(=O)O)C(=O)N[C@@H](CCCCN)C(=O)N[C@@H](CC(N)=O)C(=O)N[C@@H](CCCCN)C(=O)N[C@@H](CCC(N)=O)C(=O)N[C@H](C(=O)N[C@@H](CC(C)C)C(=O)N[C@@H](C)C(=O)N[C@@H](CCC(N)=O)C(=O)N[C@H](C(N)=O)C(C)C)[C@@H](C)CC)[C@@H](C)CC)[C@@H](C)CC)C(C)C)C(C)C
For the molecule B3, the “EC50 [nM], 0% HSA (cAMP, A7R5 cells)” value with rat CRF2R α receptor worked out at 0.42 nM.

B4: peptide of SEQ ID NO: 8 (peptide)
peptide: FTLSLDVPTKIK([γGlu-Palmitoyl])QKLLKQEKQKKQRQKAKTAAQILAQV-NH2
modifications: N-terminus assumed
SMILES: CCCCCCCCCCCCCCCC(=O)N[C@@H](CCC(=O)NCCCC[C@H](NC(=O)[C@@H](NC(=O)[C@H](CCCCN)NC(=O)[C@@H](NC(=O)[C@@H]1CCCN1C(=O)[C@@H](NC(=O)[C@H](CC(=O)O)NC(=O)[C@H](CC(C)C)NC(=O)[C@H](CO)NC(=O)[C@H](CC(C)C)NC(=O)[C@@H](NC(=O)[C@@H](N)Cc1ccccc1)[C@@H](C)O)C(C)C)[C@@H](C)O)[C@@H](C)CC)C(=O)N[C@@H](CCC(N)=O)C(=O)N[C@@H](CCCCN)C(=O)N[C@@H](CC(C)C)C(=O)N[C@@H](CC(C)C)C(=O)N[C@@H](CCCCN)C(=O)N[C@@H](CCC(N)=O)C(=O)N[C@@H](CCC(=O)O)C(=O)N[C@@H](CCCCN)C(=O)N[C@@H](CCC(N)=O)C(=O)N[C@@H](CCCCN)C(=O)N[C@@H](CCCCN)C(=O)N[C@@H](CCC(N)=O)C(=O)N[C@@H](CCCNC(=N)N)C(=O)N[C@@H](CCC(N)=O)C(=O)N[C@@H](CCCCN)C(=O)N[C@@H](C)C(=O)N[C@@H](CCCCN)C(=O)N[C@H](C(=O)N[C@@H](C)C(=O)N[C@@H](C)C(=O)N[C@@H](CCC(N)=O)C(=O)N[C@H](C(=O)N[C@@H](CC(C)C)C(=O)N[C@@H](C)C(=O)N[C@@H](CCC(N)=O)C(=O)N[C@H](C(N)=O)C(C)C)[C@@H](C)CC)[C@@H](C)O)C(=O)O
As to B4, the “EC50 [nM], 0% HSA (cAMP, A7R5 cells)” value with rat CRF2R α receptor was 0.11 nM. Besides, in experiment [1], the “EC50[nM] 0% HSA” value was greater than 1000 nM and the “Emax (%)” value was 16%.
For the molecule IVLSLD[dV]PTKLK([γGlu-Palmitoyl])QKLLKQERQRKERE[Aib]AEKNKRILERV-NH2 [peptide of SEQ ID NO: 225], the “EC50 [nM], 0% HSA (cAMP, A7R5 cells)” value with rat CRF2R α receptor amounted to 0.12 nM.

B5: peptide of SEQ ID NO: 13 (peptide)
peptide: FTLSLDVPTKIK([AEEA-AEEA-γGlu-C18 diacid])QILFKQQKQKKERQQAEKNKQLLEQI-NH2
modifications: N-terminus assumed
SMILES: CC[C@H](C)[C@H](NC(=O)[C@H](CCC(N)=O)NC(=O)[C@H](CCC(=O)O)NC(=O)[C@H](CC(C)C)NC(=O)[C@H](CC(C)C)NC(=O)[C@H](CCC(N)=O)NC(=O)[C@H](CCCCN)NC(=O)[C@H](CC(N)=O)NC(=O)[C@H](CCCCN)NC(=O)[C@H](CCC(=O)O)NC(=O)[C@H](C)NC(=O)[C@H](CCC(N)=O)NC(=O)[C@H](CCC(N)=O)NC(=O)[C@H](CCCNC(=N)N)NC(=O)[C@H](CCC(=O)O)NC(=O)[C@H](CCCCN)NC(=O)[C@H](CCCCN)NC(=O)[C@H](CCC(N)=O)NC(=O)[C@H](CCCCN)NC(=O)[C@H](CCC(N)=O)NC(=O)[C@H](CCC(N)=O)NC(=O)[C@H](CCCCN)NC(=O)[C@H](Cc1ccccc1)NC(=O)[C@H](CC(C)C)NC(=O)[C@@H](NC(=O)[C@H](CCC(N)=O)NC(=O)[C@H](CCCCNC(=O)COCCOCCNC(=O)COCCOCCNC(=O)CC[C@H](NC(=O)CCCCCCCCCCCCCCCCC(=O)O)C(=O)O)NC(=O)[C@@H](NC(=O)[C@H](CCCCN)NC(=O)[C@@H](NC(=O)[C@@H]1CCCN1C(=O)[C@@H](NC(=O)[C@H](CC(=O)O)NC(=O)[C@H](CC(C)C)NC(=O)[C@H](CO)NC(=O)[C@H](CC(C)C)NC(=O)[C@@H](NC(=O)[C@@H](N)Cc1ccccc1)[C@@H](C)O)C(C)C)[C@@H](C)O)[C@@H](C)CC)[C@@H](C)CC)C(N)=O
Consider B5, for which, in the experiment with rat CRF2R α receptor, the “EC50 [nM], 0% HSA (cAMP, A7R5 cells)” value was found to be 2.5 nM. For the same molecule, in experiment [1], the “EC50[nM] 0% HSA” value is greater than 1000 nM and the “Emax (%)” value was 4.3%.

B6: peptide of SEQ ID NO: 226 (peptide)
peptide: IVLSLD[dV]PIGLK([γGlu-Palmitoyl])QKLLKQQRQRKERQQAEKNKRILERV-NH2
modifications: N-terminus assumed
SMILES: CCCCCCCCCCCCCCCC(=O)N[C@@H](CCC(=O)NCCCC[C@H](NC(=O)[C@H](CC(C)C)NC(=O)CNC(=O)[C@@H](NC(=O)[C@@H]1CCCN1C(=O)[C@H](NC(=O)[C@H](CC(=O)O)NC(=O)[C@H](CC(C)C)NC(=O)[C@H](CO)NC(=O)[C@H](CC(C)C)NC(=O)[C@@H](NC(=O)[C@@H](N)[C@@H](C)CC)C(C)C)C(C)C)[C@@H](C)CC)C(=O)N[C@@H](CCC(N)=O)C(=O)N[C@@H](CCCCN)C(=O)N[C@@H](CC(C)C)C(=O)N[C@@H](CC(C)C)C(=O)N[C@@H](CCCCN)C(=O)N[C@@H](CCC(N)=O)C(=O)N[C@@H](CCC(N)=O)C(=O)N[C@@H](CCCNC(=N)N)C(=O)N[C@@H](CCC(N)=O)C(=O)N[C@@H](CCCNC(=N)N)C(=O)N[C@@H](CCCCN)C(=O)N[C@@H](CCC(=O)O)C(=O)N[C@@H](CCCNC(=N)N)C(=O)N[C@@H](CCC(N)=O)C(=O)N[C@@H](CCC(N)=O)C(=O)N[C@@H](C)C(=O)N[C@@H](CCC(=O)O)C(=O)N[C@@H](CCCCN)C(=O)N[C@@H](CC(N)=O)C(=O)N[C@@H](CCCCN)C(=O)N[C@@H](CCCNC(=N)N)C(=O)N[C@H](C(=O)N[C@@H](CC(C)C)C(=O)N[C@@H](CCC(=O)O)C(=O)N[C@@H](CCCNC(=N)N)C(=O)N[C@H](C(N)=O)C(C)C)[C@@H](C)CC)C(=O)O
For the molecule B6, the “EC50 [nM], 0% HSA (cAMP, A7R5 cells)” value with rat CRF2R α receptor stood at 0.04 nM.
